Experimental findings from a protein production outcome set (Wang et al. 2014) are described below.

This data set in a line: label from the status in PepcDB records.
Turning to “MALDSPVGRRLGLVLQSRSNGVGPDQLFGDSELDHRAVCVIGEKGAERLAGPERGVVGRDSLCCVHTRPYGLWPLHWPRPAAATTLSRPAILTPRTATRTCMTEATGIVGEFLTLKEGTDADLLAMQCGDFYEFFAEDAEIVADELDLKVSQKSSHGSSYPMAGVPVDDLTPYVSALVERGYRVAIADQHETENGHAREITRVVTPGTHLETGDESAQYLAAVVREASRDSGDTYGIAATDVTTGQFQVTQLDDADAGEALTELYTFGPAEILPGPELRNDDEFLDRLRERTDAALTLHDSASFEPGRASHTVREQFGSETVDSVGIGDQNVAVRAAGAVLSYVEDTGVGTLAAVTRLQAYGERDHVDLDATTQRNLELTETMQGDSSGSLFDTIDHTVTAAGGRLLQQWLQRPRRNRAELQRRQSCVAALSEAAMARERIRETLSDAYDLERLAARATSGSADARDLRAVQETLALLGQVADAVTETERLAESPLADALDGADREAADSLAAELDSALVADPPGTVRQGGLFKRGHDDDLDEIIDEHEAALEWLETLPDREKERTGITHLSVDRNKTDGYYIQVGKSETDAVPEKYQHIKTLKNSKRYTTPELDEKERDVLRLEERRHDMEYEHFQRLRARVAEHATLLQDVGRTLAELDAFASLAVHAVENDWARPAVVDGNELSIEAGRHPVVEQTTEFVPNDLYMDDDRQFLIVTGPNMSGKSTYMRQAALITLLAQVGSFVPARSATVGLVDGIFTRVGALDELAQGRSTFMVEMQELSNILHSATEESLVILDEVGRGTATFDGISIAWAATEYIVNSIQSKTLFATHYHELTALGEELPTVENVHVAVDGEPRSAGSDGDVTFLRTVRDGPTDRSYGVHVADLAGVPEPVVDRSQAVLDRLRDDKAIEIRGSEQNDGGTTQAVFDLDSGQFRDGAAQSGGAAAGSTAEPVATDGDPEHAPGEAAAEGPKGDERAASLDSETEAVLSELTELDVNETPPVELMAKVQEWQAELDDE”, the protein production result was “failed”.

Consider “MALGPEGAADLQRQLTEWTVFTAHCWQARSPQTEVLIATSGGTSEAWQQWLGAVEVQPQAEGDLGDRLHQAFQDSWQVGCDRTVIIGSDCPQIEPHHLDEAFAVLQQADVVIGPASDGGYWLIGLSQPQPQLFQNIDWGSDRVLVQTLEAAQVADLQVAQLESLSDLDRPEDLNLWQPQPQLSVIITTLNEAANLPQTLALIGDAPVETLVVDGGSQDATVAIAQAWGAKVIHSPAGRGRQFNQGAAAAHGNILLFLHGDTRLPPRFWEHVLQTLQPPQVVAGAFQLQIDSPDWRLRWIERGVRWRSHWLQQPYGDQALFLSRDRWRAIGGFSTGPLLEDYRFVRQLRRQGTIAIASAAVMTSARRWQRRGVLQTTLLNQLILLAHHCGVSDQQLARWYRLEHHHHHH”, for which the protein production result is on record as “not failed”.

For “MALKATIYKATVNVADLDRNQFLDASLTLARHPSETQERMMLRLLAWLKYADERLQFTRGLCADDEPEAWLRNDHLGIDLWIELGLPDERRIKKACTQAAEVALFTYNSRAAQIWWQQNQSKCVQFANLSVWYLDDEQLAKVSAFADRTMTLQATIQDGVIWLSDDKNNLEVNLTAWQQPS”, the protein production result is “not failed”.

Turning to “MALKDTGSGGSTILPISEMVSASSSPGAPLAAAPGPCAPSPFPEVVELNVGGQVYVTKHSTLLSVPDSTLASMFSPSSPRGGARRRGDLPRDSRARFFIDRDGFLFRYVLDYLRDKQLALPEHFPEKERLLREAEFFQLTDLVKLLSPKVTKQNSLNDECCQSDLEDNVSQGSSDALLLRGAAAGAPSGSGAHGVSGVVGGGSAPDKRSGFLTLGYRGSYTTVRDNQADAKFRRVARIMVCGRIALAKEVFGDTLNESRDPDRQPEKYTSRFYLKFTYLEQAFDRLSEAGFHMVACNSSGTAAFVNQYRDDKIWSSYTEYIFFRPPQKIVSPKQEHEDRKRDKVTDKGSESGTSCNELSTSSCDSHSEASTPQDNPANTQQAAAHQPNTLTLDRPSRKAPVQWMPPPDKRRNSELFQSLISKSRETNLSKKKVCEKLSVEEEMKKCIQDFKKIHIPDCFPERKRQWQSELLQKYGL”, the protein production result was “failed”.

With “MALLAIDLDMFGHGSAGQVLGRTDVDRVEYQYSTKSLLSIYIFYEETCGFFIDEEKKVFVVFELDESQAYKYAYIIGENICLKKLDLGEVRTFSCPIVCSSSYVPS”, the protein production entry is reported as “failed”.

Consider “MALMSDKFLSIVIPAYNSEKYIEKNLMFLSRQTSNNFEVIVVDDGSTDNTCEVSEACLENFKINHRVIRCEENRGQSVARNIGINYSRGKYILFLDSDDFAENNLVQILERNMFNEPDIVFFDYKRIKEGDSVNVNIAQNFEFGKIKSGEEVFNAYKDNKIRLWTGSLVYNKEFLNKNKLRFLEGAHGAEDLNFIFKALLSSKKVRGIEDSLVFYCQRGDSLTNNPDIYKNITVVESMEDVAKFIDENKLDKKLKEAIEKEFTCEHIMYQILGYLNSETKKDTLSVLKNKNVKKYLKKATIKTNRYGRSMYTYMKMAAYFPNLFIKTYLKNTGKLEHHHHHH”, for which the protein production entry is “not failed”.

Turning to “MALNTNQLFAYLNRGDIAEFKFSPLFTTLFFPNVATFSTQNIMLDTLDIEEVTMSAFCSPMVGSQVQRDKGYETSTIKPGYMKPKHEIDPTKTIMRMAGEDPAQLNDPTYRRMRLITGNMRRQINAIKARVEWLAVNAVTTGKNIIEGEGIERYEIDWKIPEKNIIEQADGKKWSEQDKETHYPIYDIELYADQAGCPANVMIMGAEVWRTLRSFKKFRELYDLSRGSESAAELACKNLGEVVSFKGYLGDLALIVYSGKYTDSDGTEKYFLEPDLLVLGNTNNKGLVAYGAIMDQEAVRTGATQNMFYPKNWIEDGDPAIEYVQTHSAPQPVPADIRKFVTVKIA”, the protein production result was “not failed”.

On to “MALPDRRAEGVAASLAGALIPAFLAAQDRIIEMVPFRTSATLFAFVLTIVFLAFALRVLFSFRDVRSAAVETALFATGFLYVPLLLTHLAWLRALPDGVGWIFLVLVIVMSGDTAAYYVGSNLGRRKLYPSVSPNKSVEGAIGGLLGSLAGTFVARLTFFPGLTVLDCIATALLLGVLGQVGDLFESLLKRSFGVKDSGTIVPGHGGILDRLDSILFAVPAAYYYALFVFMNR”, for which the protein production result is “failed”.

With “MALPPILRDRLRLPVIASPLFIISNPDLVIAQCKAGIVGSFPSLNARPLSQLDEWLARITEELAAWDKANPDMPSAPFAVNQIVHKTNNRLEDDIAMCVKYKVPLVITSLGAREDVNQAIHSYGGITLHDVITDRFARKAIEKGADGLIPVAAGAGGHAGTLSPFALIQEIRQWFDGPVALSGSIASGRSILAAQAMGADLAYVGSAFIATKEANAVEGYKQMIVDSKADDILYSNLFTGVHGNYLRPSVIKAGLDPENLPESDPSKMNFGSGGNQDAKAWRDIWGCGQGIGAIDNVLTAGELVAKFAAEYEQAKAELAAKTALTAGKHLAFAAE”, the protein production entry is “failed”.

In the case of “MALPPYDPNFKFAFSLGTIAKHQDYDESASAAVVALDLISSARFALKLDSVYTEYSAKYVVDNAAGSHSGRKLTVKDCLEFALNKGGIPKAEDWPRLGSVITPPSSYKPDLVSMKGQVIEPQTIEEACDMVVDQPVGAKLHVFKPHIELQQDASAITGIYCGTSGEPASYVGLRDAIIVGVEKIQGKSIGTVKVWYKKFIFLKVAMSRWFQLYSPDGTHTGIKRTDYLVDFCVPRLSMD”, the protein production result was “failed”.

Regarding “MALQLGPHELQHVFSFLEARDLLRAAQVNKVWNEVSMTNELWRQLCLRRWAPCKALPVVLGTQTWRQYYFCRSELEFRVKSGRPQDFICKAISGHTGTIDQLAYVSPHEYRFDEKARSVVCTVSSDCTVRAWDLQEGTEMWSSPVQPAPLVNLVAYPQLQLVVTVDTQGLIRGWNTDTGSEWAFFSLPTSCSSMEACDHPEGSFLLVACAEGTLYTMTVPQLQVVFRVATFPHTPVSLMCSPDKQWVLVSAQDSDLGPKVFYTQPLLHPSEDRLPASATLPIRLSSRACWAPDEAARLMVTHRDDSGVHLVITTFELKANKSRDRVSILAQQLASFPLPDTMTPHLMQGHGSQVILLTSGSELVLFNIHGLQLMAFQDHQKPITSVWVDPDRVITAALDLSLCVYVWNKENTSPILKSCYHLLGGSHRWASGFTHVKSDSRSIAGVEARSTGTSILRSYCYKVQLG”, the protein production result was “failed”.

As for “MALSIIENGKKLESTIDFSNFLKEFKKYRLRVLLVVLAITLAAFPLINGMTPQYTATATIVLKAKTDNSTPIDQVEDFDATQAEYYPTQAELLQSKTVIEAAAKKLDLINSPIFEDEDKDENIPQSEEEHLYSIVKAIKKKLSISPVRFSQLVHVSYESKDSDMSALVANAVVESYIEQQEQRKIEKTQQAQQWNNTRMSELKEKIKQQKADIDKFLSDNGLLTYQGVDGFETEQLALVNDRLATAKEKRITAKANYNTISEALGYPLEDVATLPSISNHAQLQDLRIALIQAKRTLFDLQKMYGPKNRQILEANAQIKAIELQTTALLKELKTGLYKEYQAAIERENKYRALLAEQKKDFTALAAKKDTYNTMKADLDKTQELYEKIFLRSKEQELTVLYREPVARLLDAATPPHKPSKPNKALLLIMVCAMTIIFSLLFIIIKSALNKSINNLTQVNTRLGLQGIGELISLNYIDELALFTKNFFKNSYSAETVHAIRTTILLDDKPWPIIGLTSTESTESNELNSYLLAYSFSQDRSTLLIDLDYRKEISLTEAILMQKENEIDAKKAENSDDFETVPTSTVMGVAEALEQKHPINDCLIKIENNLTFLPRGTLTETPLITLASEELGRQLKELSKQFEQVIVNLPAMTESKDAQLIARHLSGVIYTVQAGELSANHILANIEKVKQVQTPIMGVILTDVQNDELETEEAKQQLIHQNDDILG”, the protein production result is “failed”.

For the sequence “MALTEEEKSINIVDLFIYLIAHWKWFVLSILLFGGYFWYSYCETPFVYSRTAIVMIKTPANSRSAMQLNNADFIGQVNVASEILQFKSKELMRKVIDRLHADVSYMVRDGLRPRELYTDSPVRVAFLEAGLDEVCSLSVIPKNKQQVELADFSLDELEQRKTVNLNDTVDTPLGKLIVFTAENYSESYFDRPIKVTSKSREGMVAFWLSNLTIRQMSGDAALLSMTMNDLSPTRAADILDMLITVYNEEAIKDKNRISVNTAEFIKERLQIIEHELGSVETDIEDLKRANNGVDINTVAGMYIQDSRQYESSIKELDTQLQLVSFIKQYLQDSNKDDELIPSNIGLSDLSIESQISRYNETLLRRNRLVSGSSSNNPVVQELNRIMQTMKQNIYMAVDNLSKSLRLKKQDYMRQESHVRQKVQAVPGKQREMLSIERQQKVKESLYIFLLNKREENALSQAMVDNNARILDPVSGSNLPISPNKYKKMILGVGCGIIVPSVILLLILMLDTRVHNRKEVEAVVSAPFLADIPQTAKASVDAHEVVVRARGLDPLSEAFRILRTNLGFMLSQAQDHKIITLTSFNIGAGKTFVSVNLAASLVQTKKKVLILDLDLRKGKMSEMAHSKHVKGVAHYLSNPSIVVDDLILRDAFGEGLDLIPIGVIAPNPTELLLSRRLDELMDRLRELYDYIIVDNVPIGLVADASVVNRISDLTLFIVRVGKIDRRQLPELERLYQEHKLTNMAVVLNGTKKGSSGYGYGYGYGQGYGYKNAEKKKGLFGRKKKKSRK”, the protein production entry is “failed”.

In the case of “MALTSGQVGNLLNAFDSHGGHFQTQMAFRLMWLTLTRANESVQARWDEFDLANGLWKIPKERMKARREHLLPLPRQAVSILTTMQPITGQSTYVFPNRDDRHKPMSDAAFRQALKKLGWATIYSPHGTRTTGSTRLNEMGLEHHHHHH”, the protein production result is given as “failed”.

As to “MAMALFQSAPHSLCILRLSAIGDVCNTIAAVQAIQRQWPQTRITWVTGKLEAELIQSLPDIQVIVFDKKLGWRAYTQLWQQLKSERFDALLHMQYAFRASIATLGIKARYKLGFDAARSQDFQTWFTNVKVPSPDKMHVLDGLLAFVEHLGIRDIEPKWSLTCQPDDLTWAEAQFQPEQPRLVVVPGASKAYKNWTAEGYAAVIEHAQQQGWQVILAGSPAQVERDLAAQVEQALAHPVLNLVGKSTLQQMLALLAKADLVIAPDTGPAHMANAMHTPIIGLYAHHNPERTGPYHYRHYVVSAYQEALLAETGKMPQQVDWRTRVKDPNAMQRITAQQVIAMFERAAADIMATQVND”, the protein production entry is “failed”.
